The target in data set [1] is T1, HsRAD51(F129V) (Homo sapiens, UniProt Q06609 1-339, F129V). The data set can be described thus: SPR; ADP (2.5 mM); SPR (Biacore 3000): 20 mM HEPES pH 7.5, 10% glycerol, 1 mM DTT, 1 mM MgCl2, 0.005% P-20, 2.5 mM indicated nucleotide, 150 mM KCl when indicated (text: salt similar to strand exchange), 25 C, 100 nM-1.6 uM protein. The settings on record: protein: recombinant; chain copies: 16; label: 5' biotin on strand 1; blunt.

Data set [2] has as its target T2, HsRAD51 wild type (Homo sapiens, UniProt Q06609 1-339). The data set can be described thus: SPR; ATP (2.5 mM); SPR (Biacore 3000): 20 mM HEPES pH 7.5, 10% glycerol, 1 mM DTT, 1 mM MgCl2, 0.005% P-20, 2.5 mM indicated nucleotide, 150 mM KCl when indicated (text: salt similar to strand exchange), 25 C, 100 nM-1.6 uM protein. The settings on record: protein: recombinant.

Data set [3] deals with T2, HsRAD51 wild type. Kind of data set: SPR; no nucleotide; SPR (Biacore 3000): 20 mM HEPES pH 7.5, 10% glycerol, 1 mM DTT, 1 mM MgCl2, 0.005% P-20, 2.5 mM indicated nucleotide, 150 mM KCl when indicated (text: salt similar to strand exchange), 25 C, 100 nM-1.6 uM protein. The settings on record: protein: recombinant.
For data set [4], the target named is T2, HsRAD51 wild type. Kind of data set: SPR; ADP (2.5 mM); SPR (Biacore 3000): 20 mM HEPES pH 7.5, 10% glycerol, 1 mM DTT, 1 mM MgCl2, 0.005% P-20, 2.5 mM indicated nucleotide, 150 mM KCl when indicated (text: salt similar to strand exchange), 25 C, 100 nM-1.6 uM protein. The settings on record: protein: recombinant; chain copies: 10; label: 5' biotin; single strand.

Data set [5] deals with T3, HsRAD51(H294V) (Homo sapiens, UniProt Q06609 1-339, H294V). The data set can be described thus: SPR; no nucleotide; SPR (Biacore 3000): 20 mM HEPES pH 7.5, 10% glycerol, 1 mM DTT, 1 mM MgCl2, 0.005% P-20, 2.5 mM indicated nucleotide, 150 mM KCl when indicated (text: salt similar to strand exchange), 25 C, 100 nM-1.6 uM protein. The settings on record: protein: recombinant; chain copies: 10; label: 5' biotin; single strand.

Data set [6] concerns the target T1, HsRAD51(F129V). The data set can be described thus: SPR; ADP (2.5 mM); rapid dissociation; SPR (Biacore 3000): 20 mM HEPES pH 7.5, 10% glycerol, 1 mM DTT, 1 mM MgCl2, 0.005% P-20, 2.5 mM indicated nucleotide, 150 mM KCl when indicated (text: salt similar to strand exchange), 25 C, 100 nM-1.6 uM protein. The settings on record: protein: recombinant; chain copies: 10; label: 5' biotin; single strand.

Data set [7] deals with T3, HsRAD51(H294V). Described as above. The settings on record: protein: recombinant; chain copies: 10; label: 5' biotin; single strand.
Where [8] appears, read: chain copies: 16, label: 5' biotin on strand 1, blunt.
Where [9] appears, read: chain copies: 10, label: 5' biotin, single strand.

T2 sequence (Q06609 whole entry): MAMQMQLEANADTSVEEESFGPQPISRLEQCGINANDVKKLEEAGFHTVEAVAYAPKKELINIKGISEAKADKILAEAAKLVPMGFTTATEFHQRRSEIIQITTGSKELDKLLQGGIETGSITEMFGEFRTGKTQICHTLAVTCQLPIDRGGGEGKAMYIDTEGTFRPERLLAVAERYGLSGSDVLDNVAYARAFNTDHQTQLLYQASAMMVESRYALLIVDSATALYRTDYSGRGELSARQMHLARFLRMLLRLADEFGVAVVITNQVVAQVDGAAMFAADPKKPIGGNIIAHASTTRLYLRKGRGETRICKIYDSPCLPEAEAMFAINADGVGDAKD
T3 sequence (Q06609 whole entry H294V): as the sequence (Q06609 whole entry) above, with H294V counted along it
T1 sequence (Q06609 whole entry F129V): as the sequence (Q06609 whole entry) above, with F129V counted along it

B1: 50 bp dsDNA (dsDNA)
DNA 1: TCGAGAGGGTAAACCACAATTATTGATATAAAATAGTTTTGGGTAGGCGA
DNA 2: TCGCCTACCCAAAACTATTTTATATCAATAATTGTGGTTTACCCTCTCGA
In the case of B1, the Kd in the data set with HsRAD51(F129V) [1] is 446 nM; in the data set with HsRAD51 wild type [2] (setting [8]), 262 nM; in the data set with HsRAD51 wild type [3] (setting [8]) it was 264 nM.

With TTTTTTTTTTTTTTTTTTTTTTTTTTTTTTTTTTTTTTTTTTTTTTTTTT (ssDNA) [dT50], the Kd was 20 nM in the data set with HsRAD51 wild type [4]; 90 nM with HsRAD51 wild type [2] (setting [9]); 15 nM with HsRAD51 wild type [3] (setting [9]); 28 nM with HsRAD51(H294V) [5]; 54 nM with HsRAD51(F129V) [6]; 43 nM with HsRAD51(H294V) [7].

Values taken from article PMC3155514, “Subunit Interface Residues F129 and H294 of Human RAD51 Are Essential for Recombinase Function”.
